Assay results taken from patent US20210269532A1.

What was measured:
[1] = molecular target: chimeric mouse AXL ECD with human Ig1 domain, His-tagged (human; mouse) (UniProt Q00993); assay: BLI (Octet QK384), His-tagged protein captured on Anti-Penta-HIS sensors, antibody at saturating conditions; white cell
[2] = molecular target: His-tagged human AXL extracellular domain (recombinant) (human) (UniProt P30530); assay: SPR classical sandwich assay (IBIS MX96): 100 nM analyte over AXL-His ECD held by surface-captured 10G5 analogue; grey cell = blocked (self)
Chain of His-tagged human AXL extracellular domain (recombinant) (human) (P30530 26-451): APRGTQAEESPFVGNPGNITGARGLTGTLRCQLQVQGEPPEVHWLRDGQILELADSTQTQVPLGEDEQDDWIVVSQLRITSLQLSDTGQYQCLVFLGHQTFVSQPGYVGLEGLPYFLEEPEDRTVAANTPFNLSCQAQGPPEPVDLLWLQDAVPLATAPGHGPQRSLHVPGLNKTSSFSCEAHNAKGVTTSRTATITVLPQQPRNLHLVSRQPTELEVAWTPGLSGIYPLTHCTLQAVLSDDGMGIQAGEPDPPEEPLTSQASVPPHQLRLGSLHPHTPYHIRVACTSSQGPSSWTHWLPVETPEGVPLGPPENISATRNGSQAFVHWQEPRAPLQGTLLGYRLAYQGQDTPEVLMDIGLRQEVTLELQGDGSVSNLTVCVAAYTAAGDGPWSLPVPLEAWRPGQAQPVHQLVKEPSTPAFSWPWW

[3] = molecular target: His-tagged human AXL extracellular domain (recombinant) (human) (UniProt P30530); assay: SPR classical sandwich assay (IBIS MX96): 100 nM analyte over AXL-His ECD held by surface-captured YW327.6S2 IgG1-LALA analogue; white cell = sandwiching
[4] = molecular target: His-tagged human AXL extracellular domain (recombinant) (human) (UniProt P30530); assay: SPR classical sandwich assay (IBIS MX96): 100 nM analyte over AXL-His ECD held by surface-captured 22995; white cell = sandwiching
[5] = molecular target: His-tagged human AXL extracellular domain (recombinant) (human) (UniProt P30530); assay: SPR classical sandwich assay (IBIS MX96): 100 nM analyte over AXL-His ECD held by surface-captured 22883; grey cell = blocked
[6] = molecular target: His-tagged human AXL extracellular domain (recombinant) (human) (UniProt P30530); assay: SPR classical sandwich assay (IBIS MX96): 100 nM analyte over AXL-His ECD held by the surface-captured Control antibody (f2); white cell = sandwiching
[7] = molecular target: His-tagged human AXL extracellular domain (recombinant) (human) (UniProt P30530); assay: SPR classical sandwich assay (IBIS MX96): 100 nM analyte over AXL-His ECD held by surface-captured 23203-1; white cell = sandwiching
[8] = molecular target: His-tagged human AXL extracellular domain (recombinant) (human) (UniProt P30530); assay: BLI (Octet QK384), His-tagged protein captured on Anti-Penta-HIS sensors, antibody at saturating conditions; row HuAXL_ECD, the reference of the normalization

Chain of chimeric mouse AXL ECD with human Ig1 domain, His-tagged (human; mouse) (Q00993 other isoform, or with tags, fused parts or gaps mutant limits assumed): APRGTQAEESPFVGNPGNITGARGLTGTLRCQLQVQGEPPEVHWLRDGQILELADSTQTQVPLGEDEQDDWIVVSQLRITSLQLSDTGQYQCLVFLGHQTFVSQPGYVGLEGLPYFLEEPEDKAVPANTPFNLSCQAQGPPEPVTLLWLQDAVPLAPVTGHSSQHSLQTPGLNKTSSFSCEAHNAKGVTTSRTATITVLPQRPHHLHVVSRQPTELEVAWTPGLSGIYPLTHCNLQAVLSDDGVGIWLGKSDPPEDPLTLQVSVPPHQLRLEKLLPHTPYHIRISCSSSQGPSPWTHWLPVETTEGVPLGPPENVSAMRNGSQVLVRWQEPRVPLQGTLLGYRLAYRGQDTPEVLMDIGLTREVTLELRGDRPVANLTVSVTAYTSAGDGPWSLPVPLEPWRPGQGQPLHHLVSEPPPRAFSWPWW

BLI response (nm) normalized to full-length human AXL-ECD [1]: 0.9
normalized SPR sandwich response [2]: -0.2
normalized SPR sandwich response [3]: 1.6
normalized SPR sandwich response [4]: 1.3
normalized SPR sandwich response [5]: -0.1
normalized SPR sandwich response [6]: 1.2
normalized SPR sandwich response [7]: 1.2
BLI response (nm) normalized to full-length human AXL-ECD [8]: 1
B1: 10G5 analogue (BerGenBio) (antibody, from another filing, V domains shown)
VH: QVQLQQSGAELVRPGASVKLSCKASGYSFTDFYINWVRQRPGQGLEWIARIFPGGDNTYYNEKFKGKATLTAEESSSTAYIQLSSLTSEDSAVYFCARRGLYYAMDYWGQGISVTVSS
VL: DVLMTQTPLSLPVSLGDQASISCRSSQSLVHSNGIPYLHWYLQKPGQSPKLLIYRVSNRFSGVPDRFSGSGSGTDFTLKISRVEAEDLGVYFCSQGTHVPPTFGGGTKLEIK
